Measurements from article PMC6566259, “Engineering of Nanobodies Recognizing the Human Chemokine Receptor CCR7” (International Journal of Molecular Sciences, 2019).

Experiments:
Details in all cases: partners not purified
CCR7-SmBiT = target: T1, CCR7-SmBiT (Homo sapiens, UniProt P32248); test: split reporter (BiFC, NanoBiT); split-luciferase complementation; HEK293 cells co-expressing GPCR-SmBiT and Nb-LgBiT (plasmid ratio 1:1), coelenterazine H 5 µM, luminescence before and after 10 µM isoproterenol, 1.5 µg/mL CCL19 or PBS
T1 construct: Chemokine receptor CCR7, human; amplified from pcDNA3-CCR7-HA and ligated to SmBiT amplified from pAAVS1P-iCLHN; A Gly/Ser linker between CCR7 and SmBiT is surmised from the primer; also called pcDNA3-CCR7-SmBiT; pBiT2.1-C-CCR7-SmBiT; source: HEK293, transiently transfected, in cells; not shown: SmBiT (Small BiT of NanoLuc), C-terminal, kept
T1 sequence (P32248 25-378): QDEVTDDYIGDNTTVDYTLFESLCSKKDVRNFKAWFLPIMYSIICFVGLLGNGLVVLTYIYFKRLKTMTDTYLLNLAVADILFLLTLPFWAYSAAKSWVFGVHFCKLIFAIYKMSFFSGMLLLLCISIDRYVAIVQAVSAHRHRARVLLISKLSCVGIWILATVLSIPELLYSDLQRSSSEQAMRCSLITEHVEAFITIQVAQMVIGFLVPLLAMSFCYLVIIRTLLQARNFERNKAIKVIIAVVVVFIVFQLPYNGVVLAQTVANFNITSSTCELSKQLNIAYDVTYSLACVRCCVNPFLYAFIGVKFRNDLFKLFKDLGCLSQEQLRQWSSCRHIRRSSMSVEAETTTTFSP

CCR7-YFP2 = target: T2, CCR7-YFP2 (Homo sapiens, UniProt P32248); test: split reporter (BiFC, NanoBiT); BiFC read by confocal microscopy; HEK293 cells stably expressing CCR7-YFP2, transiently transfected with Nb-YFP1, unstimulated or stimulated with 0.5 µg/mL CCL19, fixed
T2 construct: Chemokine receptor CCR7, human; amplified by PCR and subcloned into the split-YFP2 BiFC vector; also called CC chemokine receptor 7; CCR7-Y2; source: HEK293, transiently or stably transfected, in cells; not shown: split-YFP2, C-terminal, kept
T2 sequence (P32248 25-378): as above

β2AR-YFP2 = target: T3, β2AR-YFP2 (human, UniProt P07550); test: split reporter (BiFC, NanoBiT); BiFC read by flow cytometry; HEK293 cells co-expressing Nb-YFP1 and GPCR-YFP2, stimulated 20 min with 10 µM isoproterenol or 0.5 µg/mL CCL19, fixed in 4% formaldehyde
T3 construct: also called β2-adrenergic receptor; ADRB2; source: HEK293, transiently transfected, in cells; not shown: split-YFP2, C-terminal, kept

β2AR-SmBiT [1] = target: T4, β2AR-SmBiT (UniProt P07550); test: split reporter (BiFC, NanoBiT); G-protein competition assay based on split-luciferase complementation; HEK293 cells co-expressing GPCR-SmBiT, LgBiT-mini-Gαi and Nb-YFP1 or pcDNA3 (1:1:1), stimulated with 10 µM isoproterenol or 1.5 µg/mL CCL19; fold increase in luminescence over baseline
T4 construct: β2-adrenergic receptor; also called pBiT2.1-C-β2AR-SmBiT; source: HEK293, transiently transfected, in cells; not shown: SmBiT (Small BiT of NanoLuc), C-terminal, kept

β2AR-SmBiT [2] = target: T4, β2AR-SmBiT; test: split reporter (BiFC, NanoBiT); split-luciferase complementation; HEK293 cells co-expressing GPCR-SmBiT and Nb-LgBiT (plasmid ratio 1:1), coelenterazine H 5 µM, luminescence before and after 10 µM isoproterenol, 1.5 µg/mL CCL19 or PBS

B1: Nb38-LgBiT (VHH)
VHH: QVQLQESGGGLVQAGGSLRLSCAASGHTMFSNTMGWYRQAPGKQRELVAAIHSGGSTNYANSVKGRFTISRDNAANTVYLQMNSLKPEDTAVYYCNVKDFLGLIHFRDYWGQGTQVTVSS
notes: As the VHH of m7 (Nb38): Nb80 with randomised segments in CDR1 and CDR3; source: HEK293, transiently transfected, in cells; not shown: LgBiT (Large BiT of NanoLuc), C-terminal, kept
CCR7-SmBiT
  binding result: binds

B2: Nb38-YFP1 (VHH)
VHH: B1 VHH
notes: As the VHH of m1 (Nb80) with randomised segments in CDR1 and CDR3; Clone from the synthetically randomised Nb80 library; also called Nb38-Y1; source: HEK293, transiently transfected, in cells; not shown: split-YFP1 (N-terminal part of split-YFP), C-terminal, kept
CCR7-YFP2
  binding result: binds

B3: Nb1-LgBiT (VHH)
VHH: QVQLQESGGGLVQAGGSLRLSCAASGLRFSRNTMGWYRQAPGKQRELVAAIHSGGSTNYANSVKGRFTISRDNAANTVYLQMNSLKPEDTAVYYCNVKDWNNQPNGDDYWGQGTQVTVSS
notes: As the VHH of m3 (Nb1): Nb80 with randomised segments in CDR1 and CDR3; source: HEK293, transiently transfected, in cells; not shown: LgBiT (Large BiT of NanoLuc), C-terminal, kept
CCR7-SmBiT
  binding result: binds

B4: Nb1-YFP1 (VHH)
VHH: B3 VHH
notes: As the VHH of m1 (Nb80) with randomised segments in CDR1 and CDR3; Clone from the synthetically randomised Nb80 library; also called Nb1-Y1; source: HEK293, transiently transfected, in cells; not shown: split-YFP1 (N-terminal part of split-YFP), C-terminal, kept
CCR7-YFP2
  binding result: binds

B5: Nb80-YFP1 (VHH)
VHH: QVQLQESGGGLVQAGGSLRLSCAASGSIFSINTMGWYRQAPGKQRELVAAIHSGGSTNYANSVKGRFTISRDNAANTVYLQMNSLKPEDTAVYYCNVKDYGAVLYEYDYWGQGTQVTVSS
notes: Nanobody Nb80 against the β2-adrenergic receptor; The reverse PCR primer appears to encode a His6 stretch at the C-terminus of Nb80, ahead of YFP1 (surmised from the primer); No PDB id is printed; also called Nb80-Y1; pcDNA3-Nb80-YFP1; source: HEK293, transiently transfected, in cells; not shown: split-YFP1 (N-terminal part of split-YFP), C-terminal, kept
β2AR-YFP2
  binding result: binds
β2AR-SmBiT [1]
  binding result: binds

B6: Nb80-LgBiT (VHH)
VHH: B5 VHH
notes: As the VHH of m1 (Nb80); Nb80 was moved from pcDNA3-Nb80-YFP1 into pcDNA3-CCR7-LgBiT by HindIII and ClaI, followed by site-directed mutagenesis at the junction; A Gly/Ser linker before LgBiT is surmised from the primers; also called pcDNA3-Nb80-LgBiT; source: HEK293, transiently transfected, in cells; not shown: LgBiT (Large BiT of NanoLuc), C-terminal, kept
β2AR-SmBiT [2]
  binding result: binds

B7: Nb5-LgBiT (VHH)
VHH: QVQLQESGGGLVQAGGSLRLSCAASGCVPGPNTMGWYRQAPGKQRELVAAIHSGGSTNYANSVKGRFTISRDNAANTVYLQMNSLKPEDTAVYYCNVKDETRTRHQNDYWGQGTQVTVSS
notes: As the VHH of m5 (Nb5): Nb80 with randomised segments in CDR1 and CDR3; source: HEK293, transiently transfected, in cells; not shown: LgBiT (Large BiT of NanoLuc), C-terminal, kept
CCR7-SmBiT
  binding result: binds

B8: Nb5-YFP1 (VHH)
VHH: B7 VHH
notes: As the VHH of m1 (Nb80) with randomised segments in CDR1 and CDR3; Clone from the synthetically randomised Nb80 library; also called Nb5-Y1; source: HEK293, transiently transfected, in cells; not shown: split-YFP1 (N-terminal part of split-YFP), C-terminal, kept
CCR7-YFP2
  binding result: binds
